Data reported in patent US20160046928A1 (Bicycle, published 2016).
Starred links: 1 amine or outer side, 2 acyl side, 3 side chain; linkers in the order of their positions; H or OH if unused. Positions of bridges follow the written chain, without caps; N, C: chain ends. Non-standard residues stand in square brackets, D forms with d. TBMB = c1c(C[*:1])cc(C[*:3])cc1C[*:2]; NMeR = CN[C@@H](CCCNC(=N)N)C(=O)O

B1: H-ACSDRF Y[CH2NH] RNCPADEALCG-OH (reduced peptide bond variant of PK15), TBMB conjugate (peptide)
peptide: H-ACSDRFRNCPADEALCG-OH
modifications: linker 2-9-16 via TBMB; also: reduced peptide bond Y[CH2NH] between Phe6 and Arg7

target: kallikrein (UniProt P03952 20-638, limits assumed); experiment: cell-based or functional assay
Sequence (P03952 20-638 limits assumed): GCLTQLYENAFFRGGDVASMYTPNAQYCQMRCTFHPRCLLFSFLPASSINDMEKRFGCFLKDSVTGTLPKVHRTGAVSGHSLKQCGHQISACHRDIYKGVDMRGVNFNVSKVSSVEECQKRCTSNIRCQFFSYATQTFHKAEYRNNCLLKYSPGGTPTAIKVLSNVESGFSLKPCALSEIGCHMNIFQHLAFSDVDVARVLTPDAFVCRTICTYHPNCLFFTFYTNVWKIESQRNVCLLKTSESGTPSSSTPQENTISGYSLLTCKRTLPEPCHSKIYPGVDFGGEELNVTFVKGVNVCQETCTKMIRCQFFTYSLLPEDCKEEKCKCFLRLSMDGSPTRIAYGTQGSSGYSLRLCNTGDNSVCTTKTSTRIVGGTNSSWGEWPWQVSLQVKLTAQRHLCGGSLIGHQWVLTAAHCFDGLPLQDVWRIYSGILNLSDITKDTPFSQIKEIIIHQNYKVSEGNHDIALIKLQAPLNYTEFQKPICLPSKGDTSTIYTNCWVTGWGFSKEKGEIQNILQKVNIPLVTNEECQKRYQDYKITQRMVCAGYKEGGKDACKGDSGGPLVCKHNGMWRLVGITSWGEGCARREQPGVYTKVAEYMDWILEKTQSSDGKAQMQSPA

Point of comparison: H-ACSDRF[NMeR]NCPADEALCG-OH (linker 2-9-16 via TBMB) [H-ACSDRF-(NMeArg)-NCPADEALCG-OH (N-methyl-arginine variant of PK15), TBMB conjugate], “inhibition of kallikrein activity (IC50, substrate Z-Phe-Arg-amc, fluorescence)” value 3.1 µM. Against it:
- B1 — 5.4-fold higher, 16.6 µM
- H-ACSDR[dF]RNCPADEALCG-OH (linker 2-9-16 via TBMB) [H-ACSDRfRNCPADEALCG-OH (D-Phe variant of PK15), TBMB conjugate] — within 1.5-fold, 4 µM
